Experimental data published in the nanobody polyreactivity screen of Harvey et al. (2022).

Assay: yeast display, Sf9 membrane polyspecificity reagent, FACS + sequencing; frameworks hold sequencing errors
Summary of the method: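 After 36–48 hours of galactose induction, yeast (Saccharomyces cerevisiae BJ5465) displaying a synthetic nanobody library were stained at 4 °C for 1 hour with 10% biotinylated, detergent-solubilized Sf9 membrane reagent. Streptavidin microbeads enriched the stained cells before FACS sorting into low and high (top ~1%) gates on anti-HA and streptavidin fluorescence. Each clone's polyreactivity label reflects its gate of origin.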

| Sequence | polyreactivity (PSR sort gate) |
| --- | --- |
| QVQLVESGGGLVQAGGSHRLSCSGSGFSLTLNAMGWYRQAPGKERELVAAISGNGGRTYYADSVKGRFTISRDNAKNTVYLQMNSLKPEDTAVYYCAARYTRTPSDCSTRKFGYGYWGQRTQVTVSS | high polyreactivity |
| QVQLVESGGGLVQAGGSILLICSASGGNFYVYSMGWYRQAPGKERELVAAIRYSGGSTCYADSVKGRFTISRDNAKNTVYLLMNSLKTEYTAVYYCATVGWPFYPARDYDYSGQGTQVTVSS | low polyreactivity |
| QVQLVESGGGLVQAGGSILLSCAASGSIYGTNTMGWYRQAPGKEREFVAVITGSTTSTYYADSVKGLFTISRDNAKNTVYLQMNSLKPEDTAVYYCATDYWWDLFEYDYWGQGTQVTVSS | high polyreactivity |
| QVQLVESGGGLVQAGGSIRISCAPSGRTFNYYAIGWNRPAPAQEREFVAAITKSCGSTYYADSVKGRFTISRDNAKYTVYLQMNSVKPEDTAVYYCATTHRYRVVYWRQGTQVTVSS | high polyreactivity |
| QVQLVESGGGLVQAGGSIRISCEASGITFGRNPMGCDRQAPGKERELVDAIDSGGNTYADSVKGRFTISRDNAKNTFYLQMNRLIPEDTAVYYCAVDGGEFSSYGYWGQGTQVTVSS | low polyreactivity |
| QVQLVESGGGLVQAGGSIRLICAASGFIISWYAMGWYRQAPGKERELFAAISSGGSTTYADSVKGRFTISRDNAKNTVYLQMNSLKPEDTAVYYCNADQVYGYNYWGQGTQVTVSS | high polyreactivity |
| QVQLVESGGGLVQAGGSIRLICAASGRNYAVYAMGWYRQAPGKERELVAAITYGGGRTYYADSVKGRFTISRDNEKNTVYLKLNSMNPEDTAVYFCAADYFGTDYDYWGQGTHVTVSS | low polyreactivity |
| QVQLVESGGGLVQAGGSIRLICAASGRTFSRYAMGWYRQAPGKERELVAAITFRFGRTYYADSVKGRFTISRDNAKNTVYLQMNSMKPEDTSVYYCAAETKYSGAYPYDYWGQGTQVPVSS | high polyreactivity |
| QVQLVESGGGLVQAGGSIRLSCAASGFTFTRYTMGWYRQAPGKERELVARITRSGGSTYYADSVKGRFTISRDNAKNTVYLQMNSLKPEDTAVYDCAAGYVVATRYDYWGQGTQVTLSS | high polyreactivity |
| QVQLVESGGGLVQAGGSIRLSCAASGRIFRYYHMGWYRQAPGKERELVARISSTGRTYADSVKGRFTISRDNAKNSVYLQMYSLKPEDTAVYFCAALFHTRGHSKYDYWGQGTQVTVSS | high polyreactivity |
| QVQLVESGGGLVQAGGSIRLSCAASGRISAPNAMGWYRQAAVKERELVAAISSGGRTNYADSVKGRFTISRDNEKNTVYLQMNSLKPEDTAVYYCAAYYYNDRMYYWGQGNQVTVSS | high polyreactivity |
| QVQLVESGGGLVQAGGSIRLSCAASGRTAKRYAMGWYRQAPGKERELVAAISRGGGSTYYADSVKGRFTISRDNAKNTVYLQMNSLKPEDTAVYYCAADLNSYTRYDYWGQGTQVTVSS | high polyreactivity |
| QVQLVESGGGLVQAGGSIRLSCAASGRTFGDYAMGWYRQAPGKERELVAAISSSGGRTYYADSVKGRFTISRDNAKNTVYLQMNSLKPEDTAVYYCAAQSKYYQYYSWGQGTQVTVSS | high polyreactivity |
| QVQLVESGGGLVQAGGSIRLSCAASGRTFVPYVMGWYIQAPGKERELVATINWSGGSTYYADSVKGRFSISRDNAKNTVYLQMNSLKPEDTADYYCDARYYSDWFYYLFRYDYWGQGTQVTVSS | low polyreactivity |
| QVQLVESGGGLVQAGGSIRLSCAASGSIFSWYAMGWYSQAPGKERELVAAITSDGGTNYADSVKGRFTISRDNAMNTVYLQMNTLKPEDTAVYYCAADYWYSWRRSHYAHRYGYWGQGTQVTVSS | low polyreactivity |
| QVQLVESGGGLVQAGGSIRLSCAASGSIVVSYAMGWYRQAPGKERELVAAITVSGGSTYYADSVKGRFTISRDNAKNTVYLQMNSLKPEDTAVYYCAADSWDDWVVEFYYWGQGTQVNVSS | low polyreactivity |
| QVQLVESGGGLVQAGGSIRLSCAASGSTFANYAMGWYRQAPGKERELVAAISWSGSYTYYADSVKGSFTISRDNAKNTVYLQMNSLKPEDTAVYYCAADYDTPTWEYYYWGQGTQVTVSS | low polyreactivity |
| QVQLVESGGGLVQAGGSIRLSCAASGSTFWPYAMGWYRQAPGKERELVAAITTSGGITYYADSVKGRFTISRDKAKITVYLQMNSVKPEDTAVYYCAADLSYHGYGYWGQGTQVTVSS | low polyreactivity |
| QVQLVESGGGLVQAGGSIRLSCAASGSTFYIYAMGWYRQAPGQERELVATISWSGGSTYYADSVKGRFTISRDNAKNTVYLQMNSLKPEDTAVYYCAVRPGFGRSLWYGYWGQGTQVTVSS | high polyreactivity |
| QVQLVESGGGLVQAGGSIRLSCAASGSTLQGNAMGWYRQAPGKERELDAAISRSGGSTYADSVKGRFTISRDNAKNTVYLLMNSLKPEDTAVYYCAAYSGVGYLWFVYWGQGTQVTVSS | low polyreactivity |
| QVQLVESGGGLVQAGGSIRLSCAASRFTFGPYAMGWYRQAHVKERELVAAITIRGGSPYADSVKGRFTISRDNAKNTVYLQMNSLKPEDTAVYYCATVRALEYNYWGQGTQVTVSS | low polyreactivity |
| QVQLVESGGGLVQAGGSIRLSCAASVSTFFVYTMGWYRQATGKGMELVAAISGSGGSTAYADSVKGRFTISRDNAKNTVYLQLNSLKPEDTAVYYCAARRHVYLRGSTFEFNYWGQGTQVTVSS | high polyreactivity |

| Sequence | polyreactivity (PSR sort gate) |
| --- | --- |
| QVQLVESGGGLVQAGGSIRLTCAASGRIFYGNAMGCYRQAPGKERELVAAISSGTSTNYADSVKGRFTISRDNAKTTVYLQMNSLKPEDTAVYYCAAGSYSRYLYSLYFDFDYWGQGTQVTVSS | low polyreactivity |
| QVQLVESGGGLVQAGGSIRLTCAASGSIFYHYAMGWYRQAPAKERELVADITQSGGTTDYADSVKGRFTISRDNAKNTVYLQMNSLKTEDTAVYYCAADGDTTSPTYYIFWYGEFDYCGQGTQVTVSS | low polyreactivity |
| QVQLVESGGGLVQAGGSIRLTSAASGRTFVTHPMGWYRQAPGKDRELVAAISRSGSSTYYADSVKGRFTISRDNAKNSVYLQMNSLKAADTAVYYFARVRSRATEVVEYDYWGQGTQVTVSS | high polyreactivity |
| QVQLVESGGGLVQAGGSLCLSCAASGIFVYNAMGWYRPAPGKEREFVAAINKSGASTFYADSVKGRFTISRDTAKNTVYLQMNSLKPEDTAVYYCRERDYWGQGTQVTVSS | low polyreactivity |
| QVQLVESGGGLVQAGGSLGLSCAASGIIFQANAMGWYRQAPGKERELVAGISRGSSTNYADSVKGRFTISRDNEKNTVYLQMNILKPEDTAVYYCASDRGYGRISRNYYWGQGTQVTVSS | low polyreactivity |
| QVQLVESGGGLVQAGGSLGLSCAASGLIFRKYAMGWYRQAPGKERELVATINRSGGSTYYADSVKGRFTISRDNAKNTVYLQMNSLKPEATAVYYCATDRLSYGYKPGYTFYYWEQGTQVTVSS | high polyreactivity |
| QVQLVESGGGLVQAGGSLGLSCAASGYSLGSYAMGWYRQAPGKERELVAAITSSGGSTYYADSVKGRFTSSRDYAKNTDYLQMNSLKPEDTAVYYCAAERGYHGGGSGLYDYWGQGTQVTVSS | low polyreactivity |
| QVQLVESGGGLVQAGGSLGLSSAASGRTFGVYAMGWYRQAPGKERELVAGIRWRGGSTYYADSVKGRFTISRDNAKNTVYLQMNSLKPEDTAVYYCAADVYLVKYDYWGQGTQVTVSS | low polyreactivity |
| QVQLVESGGGLVQAGGSLGLSWAASGSIIRYNALGWYRQAPGKERELVAAITKGAGSTYYADSEKGRFTISRDNAKNTVYLHMNSLKPEDTEVYYCNKARGSGHTYYSWGQGTQVTVSS | high polyreactivity |
| QVQLVESGGGLVQAGGSLLISCAASGITFDGYAMGWYRHAPGKESELVARITATGFRTYYADSVKGRFTISRDYAKNTVYLKMNSLKPEDTAVYYCPRTTSCVQNVRKYYYWGQGTQVTVSS | high polyreactivity |
| QVQLVESGGGLVQAGGSLLLSCAASGFTFGSYAMGLYRQAPGKERELVARITRGGNTYYADSVKGRFTISRDNAKNTVYLQMNSLKPVDTAVYYCNAYGRVSPLYQPYGNDAQGYYWGQGTQVTVSS | high polyreactivity |
| QVQLVESGGGLVQAGGSLLLSCAASGGTFHYNAMGWYIQAPGKERELVAAITESGGRTYYADSVKGRFTISRDNAKNTVYLQMNSLKPEDTAVYYCNADQDSDAADRSAYWGQGSQVTVSS | low polyreactivity |
| QVQLVESGGGLVQAGGSLLLSCAASGLIFYWYAMGWYRQAPGKERELVAAISGGDRTKYADSVKGRFTISRDNAKNTVYLQMISLKPEDSAVYYCATAPYDTSRRYGPYEYWGQRTQVTVSS | low polyreactivity |
| QVQLVESGGGLVQAGGSLLLSCAASGNIIYSNALGWYRQGPGKERELVAAISSGGITYYADSVKGRFTISRDNAKNTVYLQMNSLKPEDTAVYYCAAYIRNWRATYEYWGQGTQVTVSS | high polyreactivity |
| QVQLVESGGGLVQAGGSLLLSCAASGRIFDRNAIGWYRQAPGKERELVAAINSVGTTYYADSVKGRFTISRDNAKNTVYLQMNSLKPEDTAVYYCAARSAYRRGYWGQGTQVTLSS | high polyreactivity |
| QVQLVESGGGLVQAGGSLLLSCAASGRIFFTNAMGWYRQAPRKERELVAAISKSGARTYYADSVKGRFTISRDKAKNTVYLQMNSLKPEDTAVYYCATDYAFPQYDDWGQGTQVTVSS | high polyreactivity |
| QVQLVESGGGLVQAGGSLLLSCAASGRTFNYIAMGWYRQAPGKERELVAAISQGGGSTYYADSVKGRFTISRDNAKNTVYLQMNSLKPEVTAVSYFAADTWWYGKYDYWGQGTQVTVSS | low polyreactivity |
| QVQLVESGGGLVQAGGSLLLSCAASGSIFGGNAMGWSRQAPGKVRELVAAITSSGGSTYYADSVKGRFTISRDNAKNTVYLQMNSLKPEDTAVYYCNKLSWRKYLGYEYWGQGTQVTVSS | high polyreactivity |
| QVQLVESGGGLVQAGGSLLLSCAASGSIFSAYAMGWDRQAPGKERQLVAGISKRGGSTYYADSVKGRFTISRDNAKNTVYLQMNSLKPEDTAVYYCNAARYPYARAVTYHYPSYGYWGQGTQVTVSS | high polyreactivity |
| QVQLVESGGGLVQAGGSLLLSCAASGSTFTQYAMGWYRQAPGKERELVAAINSRGDSTYYADSVKGRFTISRDNAKNTVYLQMNSLKPEDTAVYYCAKDPFPWALFDYWGQGTQVTVSS | low polyreactivity |
| QVQLVESGGGLVQAGGSLLLSCAASGSTLFLYAMGWYRQAPGKERELVAGITYSGSTYADSVKGRFTISRDNAKNTVYFQMNSLKPEDTAVYYCAKDGYWNEEYSVGMDYWGQGTQVTVSS | low polyreactivity |
